The RNAGym collection of RNA variant scans (doi:10.7554/elife.90254)

B1: LINE1-full (parent)
chain: UACGUAGGUGGUUUUCCCCUGAUAGUGCUAAGGGGGCCUGGAAGUUUGGACUGGGCAGAGCUCAACACAGCGUGGCAAAGUGGCUGUGGCUAGACUGCCUCUCUGGAUUCCUCGUCACUCAGCAGGGCAUCUCUGAGAGAAAUGCC

Variants of: B1
Experiment: self-cleavage, relative activity (ratio to wild type); higher = more cleavage; in vitro, sequencing; the parent is a self-cleaving ribozyme

Variant | self-cleavage
G35U A141G | 1.09
G35C U91C | 0.81
G36A A42G | 1.07
G34A A107U | 1.2
G34C U115C | 1.82
C37U U143C | 0.84
C37G A77U | 1.06
U39A A140G | 1.36
G35U U81A | 1.82
C37G A124G | 1.61
U39A C116A | 1.38
C38U A129U | 0.31
G36A U47C | 0.9
C37U U104A | 0.59
C37U U104C | 1.28
G35A A140G | 0.81
G34A U132A | 1.51
G36A U143C | 1.57
U39A G49A | 1.06
C37G A121G | 1.23
G36C U45C | 1.05
U39A G93A | 0.04
C37G U115C | 1.44
G34A U143G | 1.64

Variant | self-cleavage
C37A U91C | 0.41
U39A C66U | 0.05
U39A A141U | 1.45
U39A A141G | 1.55
C38U C84G | 0.09
U39A A79G | 1.35
G34U U104C | 1.34
U39A G53A | 1.33
C37U U119A | 0.99
G36A G40U | 0.66
G34A U73A | 0.8
G36C U85C | 0.16
G36C G82U | 1.65
C38U A141G | 0.84
C38A U109A | 1.36
G35A A69U | 0.02
G35A A69G | 0.21
C37U U62C | 0.04
G35A U100C | 1.36
G34A U96A | 0.05
G34A U96G | 0.09
G34A U96C | 0.05
C38A A50G | 0.51
G36C A77G | 1.6

Variant | self-cleavage
G35A A107U | 1.41
G35U A142G | 1.56
G35C | 1.31
G35U | 1.22
G35A | 1.1
C38U U46C | 1.51
C37G A117G | 1.66
C38A A124G | 0.68
U39A C98U | 0.45
G34A U47C | 1.18
G36C U39G | 0.76
C37A G40U | 1.04
U39A A136U | 1.52
U39A A136G | 1.49
G35U A79G | 1.22
U39A C133U | 1.41
G36A A79G | 0.96
G36C U143C | 1.43
C37A U87G | 0.12
G34A G54A | 0.78
C38U U47G | 0.78
G36A U112C | 1.29
C38U A140G | 1.24
G35U G40A | 0.85

Variant | self-cleavage
U39A G48A | 1.22
G36U A43U | 1.24
C38G A43G | 1.6
G35U U100A | 0.78
C38A A129G | 1.46
G36C A141G | 1.36
C38U U100C | 1.9
C38G U39G | 1.28
U39A A50G | 1.29
G34A A124G | 0
G34A A124U | 1.32
G34A C37U | 1.1
G34U A140U | 1.64
G34U A140G | 1.67
G34A G82U | 2.19
G36A C84U | 0.15
G35A U85C | 0.09
G36A C95G | 0.02
U39A A124U | 1.61
C37A G88U | 0
G35U A117U | 1.04
U39A G88A | 0.08
G34C U73C | 1.82
C37U G86A | 0.1

Variant | self-cleavage
G36A U130C | 1.27
G35C U143G | 0.86
G35C U143A | 1.39
G35A A79G | 1.36
G35A A92C | 0.05
G36A A124U | 0.31
G36A A124C | 2.16
G35A G36C | 1.05
G35C U62C | 0.06
C37U A129U | 0.45
C37G U45C | 1.6
G34C U130C | 0.88
G36C U104A | 1.43
G34U A69G | 0.47
G36C A57U | 0.07
G36C A57G | 0.9
C38A A140U | 1.1
G36U A69G | 0
G36A U46C | 1.32
U39A G97A | 0.12
G36A C113U | 1.02
G34U A136G | 1.54
U39A A142G | 1.53
C38U A121G | 1.72

Variant | self-cleavage
G34A U112C | 0.94
G34A U46A | 1.2
U39A G54A | 0.66
C38U U134A | 1.23
C38U U52A | 1.25
C38U U52C | 1.44
C38A A142G | 0.64
G36A A43G | 1.07
C37U U108A | 1.01
G35U U130C | 1.74
C38A G97A | 0.05
U39A C71U | 0.97
G34A U130C | 1.32
G36A A69G | 0.34
C37G A57G | 0.73
C37G A57U | 0.1
C37G A92G | 0.04
C37U A78G | 0.96
G35U G55U | 0.72
G35A U143C | 1.04
C37U G53A | 1.33
G34U A92G | 0.14
G34U A42U | 1.15
G36C U96C | 0.17

Variant | self-cleavage
U39A C90G | 0.04
U39A C90A | 0.03
C37U C128A | 1.23
G35U U102A | 1.8
G35U U102C | 1.73
G35A A136G | 1.21
G34C A138G | 2.05
G34C A140U | 1.31
G34C A140C | 1.79
G36U A78G | 1.5
G36U U52C | 1.19
G34A C146A | 1.39
G35A G106A | 1.21
G36C A94G | 0.32
C38U A107G | 1.63
C37A U39C | 1.35
U39A C111A | 1.55
C38U U119A | 1.24
C38U U119C | 1.47
G35C A65G | 0.04
C38U G74A | 1.27
G34U U108C | 1.56
G34A C66U | 0.05
